According to EP3717020B1:

Target: endogenous RAS proteins in HeLa cells
Assay: cell-based or functional assay

Substance | EC50 of loss of total RAS proteins in HeLa cells (24 h, anti-RAS immunoblot) [pM] | EC50 of loss of RAS proteins in HeLa cells (anti-RAS immunoblot) [pM] | potency of RAS loss in HeLa cells against RRSP-dta-dtB [fold]
RRSP-dta-dtB (enzyme) | 250 |  | 
RRSP-Δdta-dtB (enzyme) |  | 1 | 300
RRSP-APD-Δdta-dtB (enzyme) |  | 1 | 300
